The values below are quoted from earlier work in paper PMC7500696.

In this data set the target is tropomyosin N-terminal peptide N-terminal fragment (UniProt P09493). The data set can be described thus: CD.

For the substance “Leiomodin-2 Lmod2s1 Lmod2s1 (from UniProt Q3UHZ5)”, the Kd is 1000 nM.

A word on the Kd: it is the equilibrium constant for the complex coming apart.
